Measurements from article PMC8297411 (Nature, 2021).
Where two headings read alike, the source gives them in different places.

Experiments:
Test in all cases: cryo-EM structure
[1] = target: VP5* of S567C-A590C VP4 (foot-locked mutant), on recoated TLPs (rhesus rotavirus (RRV, G3 serotype))
[2] = target: VP6 of rhesus rotavirus, in DLPs and TLPs (rhesus rotavirus (RRV, G3 serotype))
[3] = target: VP6 of rhesus rotavirus, in DLPs and TLPs (rhesus rotavirus (RRV, G3 serotype)); remark: listed apart in the source
[4] = target: VP6 of rhesus rotavirus, in DLPs and TLPs (rhesus rotavirus (RRV, G3 serotype)); remark: listed apart in the source
cryo-EM structure [5] = target: the molecule itself
cryo-EM structure [6] = target: the molecule itself; remark: listed apart in the source
VP5* on native RRV TLPs = VP5* on native RRV TLPs (rhesus rotavirus (RRV, G3 serotype), UniProt P12473 248-776)

**Q.** “VP5* of S567C-A590C VP4 (foot-locked mutant), on recoated TLPs (domain or fragment)” was tested. Which stoichiometry N [1] did it give?
**A.** The stoichiometry N was 3.

**Q.** Which stoichiometry N [2] does the source give for “VP6 of rhesus rotavirus, in DLPs and TLPs (natural protein)” here?
**A.** Its stoichiometry N is 3.

**Q.** And the stoichiometry N [3]?
**A.** The stoichiometry N was 3.

**Q.** And the stoichiometry N [4]?
**A.** The stoichiometry N was 3.

B1: VP5* (C-terminal trypsin cleavage fragment of rhesus rotavirus VP4), wild type, on recoated TLPs (domain or fragment, rhesus rotavirus (RRV, G3 serotype), UniProt P12473 248-776, looked up)
chain: AQANEDIVVSKTSLWKEMQYNRDITIRFKFASSIVKSGGLGYKWSEISFKPANYQYTYTRDGEDVTAHTTCSVNGMNDFNFNGGSLPTDFIISRYEVIKENSYVYVDYWDDSQAFRNMVYVRSLAANLNSVICTGGDYSFALPVGQWPVMTGGAVSLHSAGVTLSTQFTDFVSFNSLRFRFRLTVEEPSFSITRTRVGGLYGLPAAYPNNGKEYYEVAGRLSLISLVPSNDDYQTPITNSVTVRQDLERQLGELREEFNALSQEIAMSQLIYLALLPLDMFSMFSGIKSTIDAAKSMATSVMKKFKKSGLANSVSTLTDSLSDAASSISRGASIRSVGSSASAWTDVSTQITDVSSSVSSISTQTSTISRRLRLKEMATQTEGMNFDDISAAVLKTKIDRSTQISPNTLPDIVTEASEKFIPNRAYRVINNDEVFEAGTDGRYFAYRVETFDEIPFDVQKFADLVTDSPVISAIIDFKTLKNLNDNYGISRQQAFNLLRSDPRVLREFINQDNPIIRNRIEQLIMQCRL
**Q.** Which “stoichiometry N” value (cryo-EM structure [5]) does the source give for B1 here?
**A.** Its value is 3.

B2: VP7 of rhesus rotavirus, recombinant, wild type (natural protein, rhesus rotavirus (RRV, G3 serotype), UniProt P12476 51-326, looked up)
chain: QNYGINLPITGSMDTAYANSTQEETFLTSTLCLYYPTEAATEINDNSWKDTLSQLFLTKGWPTGSVYFKEYTDIASFSVDPQLYCDYNVVLMKYDATLQLDMSELADLILNEWLCNPMDITLYYYQQTDEANKWISMGSSCTIKVCPLNTQTLGIGCLTTDTATFEEVATAEKLVITDVVDGVNHKLDVTTATCTIRNCKKLGPRENVAVIQVGGSDVLDITADPTTAPQTERMMRINWKKWWQVFYTVVDYVNQIIQAMSKRSRSLNSAAFYYRI
**Q.** Which “stoichiometry N” value (cryo-EM structure [6]) does the source give for B2 here?
**A.** The value was 3.

B3: VP7 on native RRV TLPs (natural protein, rhesus rotavirus (RRV, G3 serotype), UniProt P12476 51-326, looked up)
chain: B2 chain
**Q.** Does B3 bind (VP5* on native RRV TLPs)?
**A.** Result: binds
